Series [1] deals with E. coli LptAm-GSGGSGSG-AviTag, biotinylated (E. coli) (UniProt P0ADV1).
In series [2] the target is T1, E. coli LptAm-GSGGSGSG-AviTag, biotinylated (E. coli, UniProt P0ADV1 28-158, biotin on the AviTag (BirA biotin-protein ligase)).
T1 sequence (looked up): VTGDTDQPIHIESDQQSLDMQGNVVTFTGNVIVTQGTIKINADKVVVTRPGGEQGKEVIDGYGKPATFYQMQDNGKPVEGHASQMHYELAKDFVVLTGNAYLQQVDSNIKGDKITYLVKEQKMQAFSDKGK
The experiment in a line: BLI.

The series “crystal structure” concerns the molecule itself. The experiment in a line: crystal structure.

For “Murgantia histrionica thanatin (peptide)”, the MIC against E. coli ATCC 25922 in series [1] came to 1.1 µg/mL.

In turn, Chinavia ubica thanatin (peptide) registered an MIC against E. coli ATCC 25922 in series [1] of 1.4 µg/mL.

B1: P. maculiventris thanatin M21I (peptide, UniProt P55788 1-21, looked up)
peptide: GSKKPVPIIYCNRRTGKCQRI
For the molecule B1, the “fold improvement of binding over P. maculiventris thanatin” value in series [2] is approximately 3 fold.

B2: P. maculiventris thanatin Q19R (peptide, UniProt P55788 1-21, looked up)
peptide: GSKKPVPIIYCNRRTGKCRRM
For the molecule B2, the “fold improvement of binding over P. maculiventris thanatin” value in series [2] was approximately 3 fold.

B3: P. maculiventris thanatin Y10A/M21I (peptide, UniProt P55788 1-21, looked up)
peptide: GSKKPVPIIACNRRTGKCQRI
With B3, the “fold improvement of binding over P. maculiventris thanatin” value in series [2] was approximately 3 fold.

B4: P. maculiventris thanatin Y10A (peptide, UniProt P55788 1-21, looked up)
peptide: GSKKPVPIIACNRRTGKCQRM
Consider B4, for which the “fold improvement of binding over P. maculiventris thanatin” value in series [2] was approximately 3 fold.

B5: E. coli LptAm (truncated monomeric LptA) (domain or fragment, UniProt P0ADV1 28-158, looked up)
chain: VTGDTDQPIHIESDQQSLDMQGNVVTFTGNVIVTQGTIKINADKVVVTRPGGEQGKEVIDGYGKPATFYQMQDNGKPVEGHASQMHYELAKDFVVLTGNAYLQQVDSNIKGDKITYLVKEQKMQAFSDKGK
Regarding B5, the “stoichiometry N” value in “crystal structure” was found to be 2.

Source of the values: article PMC10320583 (Journal of Structural Biology: X, 2023).
